Source: patent US20210008201A1, “ANTIBODIES FOR EPIDERMAL GROWTH FACTOR RECEPTOR 3 (HER3)” (NOVARTIS AG, priority 2011, published 2021)
Where a chain is given by its changes, count along the chain named.

B1: MOR09824: anti-HER3 human antibody, IgG1/kappa; VH SEQ ID NO: 33, VL SEQ ID NO: 32 (antibody, V domains shown)
VH: QVQLVESGGGLVQPGGSLRLSCAASGFTFSSYAMSWVRQAPGKGLEWVSVISAWGHVKYYADSVKGRFTISRDNSKNTLYLQMNSLRAEDTAVYYCARWGDEGFDIWGQGTLVTVSS
VL: DIQMTQSPSSLSASVGDRVTITCRASQGISNWLAWYQQKPGKAPKLLIYGASSLQSGVPSRFSGSGSGTDFTLTISSLQPEDFAVYYCQQYSSFPTTFGQGTKVEIK
B2: MOR10701: anti-HER3 human antibody, IgG1/kappa; VH SEQ ID NO: 105, VL SEQ ID NO: 104 (antibody, V domains shown)
VH: B1 VH with Q1E, V5L, I51T, S52G, W54V, H56R, V57S, K58T, A61P
VL: B1 VL with V85T
B3: MOR12610: anti-HER3 human antibody, IgG1/kappa; VH SEQ ID NO: 375, VL SEQ ID NO: 374 (antibody, V domains shown)
VH: QVQLVESGGGLVQPGGSLRLSCAASGFTFSSYAMSWVRQAPGKGLEWVSGTGPYGGTYYPDSVKGRFTISRDNSKNTLYLQMNSLRAEDTAVYYCARWGDEGFDIWGQGTLVTVSS
VL: B1 VL
B4: MOR10702: anti-HER3 human antibody, IgG1/kappa; VH SEQ ID NO: 123, VL SEQ ID NO: 122 (antibody, V domains shown)
VH: B1 VH with Q1E, V5L
VL: B1 VL with V85T
B5: MOR09974: anti-HER3 human antibody, IgG1/kappa; VH SEQ ID NO: 69, VL SEQ ID NO: 68 (antibody, V domains shown)
VH: B1 VH with S52N, A53P, W54S, H56N, V57F, K58T, Y59N
VL: B1 VL
B6: MOR12609: anti-HER3 human antibody, IgG1/kappa; VH SEQ ID NO: 357, VL SEQ ID NO: 356 (antibody, V domains shown)
VH: B1 VH with S52N, A53G, W54L, H56Y, V57T, K58T, Y59F
VL: B1 VL

How the values were obtained:
[1] = test system: HER3 phosphorylation in MCF7 cells; assay: Phospho-HER3 in vitro cell assay, neuregulin stimulated MCF7 cells; assay type: cell-based, human; details: both ligand-dependent and ligand-independent manner; summary of cell signaling assays
Description: MCF-7 cells were routinely maintained in DMEM/F12, 15 mM HEPES, L-glutamine, 10% FCS and SK-Br-3 in McCoy's 5a, 10% FCS, 1.5 mM L-glutamine. Sub-confluent MCF7 or SK-Br-3 cells grown in complete media were harvested with accutase (PAA Laboratories) and resuspended in the appropriate growth media at a final concentration of […]. 100 μL of cell suspension was then added to each well of a 96-well flat bottomed plate (Nunc) to give a final density of 5×10^4 cells/well. MCF7 cells were allowed to attach for approximately 3 hours before the media was exchanged for starvation media containing 0.5% FBS. All plates were then incubated overnight at 37° C. prior to treatment with the appropriate concentration of HER3 antibodies (diluted in the appropriate media) for 80 minutes at 37° C. MCF7 cells were treated with 50 ng/mL neuregulin 1-β1 EGF domain (R&D Systems) for the final 20 minutes to stimulate HER3 phosphorylation. All media was gently aspirated and the cells washed with ice-cold PBS containing 1 mM CaCl2) and 0.5 mM MgCl2 (Gibco). The cells were lysed by adding 50 μL ice-cold lysis buffer (20 mM Tris (pH8.0)/137 mM NaCl/10% Glycerol/2 mM EDTA/1% NP-40/1 mM sodium orthovanadate/, Aprotinin (10 μg/mL)/Leupeptin (10 μg/mL)) and incubated on ice with shaking for 30 minutes. Lysates were then collected and spun at 1800 g for 15 minutes at 4° C. to remove cell debris. 20 μL of lysate was added to a pre-prepared capture plate.
HER3 was captured from the lysate by incubating the plate at room temperature for one hour with shaking before the lysate was aspirated and the wells washed with 1× Tris buffer (Mesoscale Discovery)/0.1% Tween-20. Phosphorylated HER3 was detected using 0.75 μg/mL biotinylated anti-phosphotyrosine antibody (R&D Systems) prepared in 1% BSA/1× Tris/0.1% Tween-20 by incubating with shaking at room temperature for 1 hour. The wells were washed four times with 1× Tris/0.1% Tween-20 and biotinylated proteins were detected by incubating with S-Tag labelled Streptavidin (Mesoscale Discovery) diluted in 1% BSA/1× Tris/0.1% Tween-20 for one hour at room temperature. Each well was aspirated and washed four times with 1× Tris/0.1% Tween-20 before adding 20 μL of Read buffer T with surfactant (Mesoscale Discovery) and the signal quantified using a Mesoscale Sector Imager. Antibodies MOR06391 or MOR03207 were included in signalling experiments as isotype controls.

BT-474 xenografts = assay: In vivo BT-474 efficacy studies; parameters: species or system female athymic nu/nu Balb/C mice; details: antibody 20 mg/kg in combination with sub-optimal trastuzumab 1 mg/kg
Description: BT-474 cells were cultured in DMEM containing 10% heat-inactivated fetal bovine serum without antibiotics until the time of implantation.
One day before cell inoculation, female athymic nu/nu Balb/C mice (Harlan Laboratories) were implanted subcutaneously with a sustained release 17β-estradiol pellet (Innovative Research of America) to maintain serum estrogen levels. One day after 17β-estradiol pellet implantation, 5×10^6 cells were injected orthotopically into the 4th mammary fatpad in a suspension containing 50% phenol red-free matrigel (BD Biosciences) in Hank's balanced salt solution. The total injection volume containing cells in suspension was 200 μL. 20 days following cell implantation animals with a tumor volume of approximately 200 mm^3 were enrolled in the efficacy study. In general, a total of 10 animals per group were enrolled in efficacy studies.
An initial loading dose of 40 mg/kg was given for the first dose. […] For the duration of the studies, tumor volume was measured by calipering twice per week. Percent treatment/control (T/C) values were calculated using the following formula: […]
Body weight was measured twice per week and dose was body weight adjusted. The % change in body weight was calculated as (BWcurrent−BWinitial)/(BWinitial)×100. […]
All data were expressed as mean standard error of the mean (SEM). […]

BxPC3 tumors = assay: In vivo BxPC3 efficacy studies; parameters: species or system female athymic nu/nu Balb/C mice; details: BxPC3 tumor growth model
Description: BxPC3 cells were cultured in RPMI-1640 medium containing 10% heat-inactivated fetal bovine serum without antibiotics until the time of implantation.
Female athymic nu/nu Balb/C mice (Harlan Laboratories) were implanted subcutaneously with 10×10^6 cells in a mixture of 50% phosphate buffered saline with 50% matrigel. The total injection volume containing cells in suspension was 200 μL. Once tumors had reached approximately 200 mm^3 in size, animals were enrolled in the efficacy study. In general, a total of 10 animals per group were enrolled in studies.
Animals were dosed intravenously via lateral tail vein injection. An initial loading dose of 40 mg/kg was given for the first dose. After the initial dose, animals were on a 20 mg/kg, every other day schedule for the duration of the study (25 days under treatment). Tumor volume and T/C values were calculated as previously detailed.

Molecule | inhibition of cellular HER3 activity [1] | % T/C (BT-474 xenografts) | inhibition of ligand driven tumor growth (BxPC3 tumors)
B1 | capable of inhibiting cellular HER3 activity |  | 
B2 | capable of inhibiting cellular HER3 activity | −50% | very effectively inhibited ligand driven tumor growth
B3 | capable of inhibiting cellular HER3 activity |  | 
B4 | capable of inhibiting cellular HER3 activity |  | 
B5 | capable of inhibiting cellular HER3 activity |  | 
B6 | capable of inhibiting cellular HER3 activity |  | 
